Patent publication US7157259B2, “Murine lecithin-cholesterol acyltransferase protein” (Takeda Pharmaceutical Company Limited, priority 1997, dated 2007)

Experiments:
[1] = molecular target: T1, human LCAT-like protein/FLAG fusion protein (Homo sapiens, UniProt Q8NCC3); experiment: Influence of DFP and DTNB on esterase activity assayed with PNPB; assay type: biochemical; conditions: inhibitor pre-incubated 25° C. for 1 hour before substrate; PNPB 500 μM; fusion protein 3.4 μg/ml; FIG. 18
T1 construct: made in house; host or cells: baculovirus (Bac-To-Bac); secreted into the culture supernatant
T1 sequence (Q8NCC3 34-412): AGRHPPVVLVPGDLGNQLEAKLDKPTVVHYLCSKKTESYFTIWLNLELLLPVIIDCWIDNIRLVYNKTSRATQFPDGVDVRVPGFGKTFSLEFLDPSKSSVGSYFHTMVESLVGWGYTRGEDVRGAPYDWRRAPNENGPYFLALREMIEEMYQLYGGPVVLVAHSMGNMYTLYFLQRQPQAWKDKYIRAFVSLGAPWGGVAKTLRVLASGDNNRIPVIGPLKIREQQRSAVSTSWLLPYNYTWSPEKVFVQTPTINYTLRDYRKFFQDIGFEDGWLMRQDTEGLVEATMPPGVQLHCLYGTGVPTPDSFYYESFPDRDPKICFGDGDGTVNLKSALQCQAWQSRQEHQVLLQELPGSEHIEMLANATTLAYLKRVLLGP

[2] = Esterase activity assay using the fatty acid ester p-nitrophenyl butyrate (PNPB); assay type: biochemical
Description: Assays were carried out in accordance with the method of Bonelli, F. S. and Jonas, A. [Journal of Biological Chemistry, 264, 14723–14728, 1989]. Thus, to the reaction buffer (10 mM Tris, pH 7.4, 150 mM NaCl, 0.01% EDTA, 1 mM NaN3) was added a graded solution of p-nitrophenyl butyrate (PNPB) in acetonitrile (final concentration:5 mM–50 μM) as the substrate. Then, the human LCAT-like protein/FLAG fusion protein obtained in Example 9 was added (final concentration:3.4 μg/ml) to make 1 ml. The mixture was incubated at 37° C. for 20 minutes and the absorbance at 400 nm was measured at 2-minute intervals. From the percent changes in absorbance at the respective substrate concentrations, initial velocity was calculated, and according to the Lineweaver-Burk method, Vmax and Km were calculated (FIG. 16). […] Using 50 μl of the semi-purified enzyme solution of fractions 6 and 7 (4 ml) obtained in Example 12 (FIG. 14), a similar activity assay was carried out at a substrate concentration of 100 μM.

[3] = PNPB 5 mM–50 μM, protein 3.4 μg/ml, 37° C., compared with human plasma LCAT, FIG. 16

## O=C(O)c1cc(SSc2ccc([N+](=O)[O-])c(C(=O)O)c2)ccc1[N+](=O)[O-] [DTNB, 5,5′-dithiobis(2-nitrobenzoic acid)]
[1]
  inhibition of esterase activity: inhibited

B1: human LCAT-like protein/FLAG fusion protein: human LCAT-like protein with FLAG peptide fused at C-terminus, expressed in insect cells, purified on anti-FLAG M2 affinity column (protein)
chain: T1 sequence (Q8NCC3 34-412)
modifications: left off: small tags and cut ends
[2]; [3]
  Km (Lineweaver-Burk): agreed with the values of human plasma LCAT on an order basis
  Vmax (Lineweaver-Burk): agreed with the values of human plasma LCAT on an order basis

B2: human LCAT-like protein: recombinant human LCAT-like protein expressed in High Five insect cells, semi-purified on Phenyl-Sepharose HP (fractions 6 and 7) (protein, UniProt Q8NCC3 34-412, looked up)
Lysosomal phospholipase A and …: T1 sequence (Q8NCC3 34-412)
[2]; 50 μl semi-purified enzyme solution of fractions 6 and 7 of Example 12, PNPB 100 μM, FIG. 17
  esterase activity: confirmed to have esterase activity
